Target: Claspin C-terminal polypeptide #18 (897-1339aa), 3x Flag, dephosphorylated with λPPase (human, UniProt Q9HAW4 897-1339, dephosphorylated with λPPase)
Test: native gel or EMSA

Sequence of Claspin C-terminal polypeptide #18 (897-1339aa), 3x Flag, dephosphorylated with λPPase (Q9HAW4 897-1339): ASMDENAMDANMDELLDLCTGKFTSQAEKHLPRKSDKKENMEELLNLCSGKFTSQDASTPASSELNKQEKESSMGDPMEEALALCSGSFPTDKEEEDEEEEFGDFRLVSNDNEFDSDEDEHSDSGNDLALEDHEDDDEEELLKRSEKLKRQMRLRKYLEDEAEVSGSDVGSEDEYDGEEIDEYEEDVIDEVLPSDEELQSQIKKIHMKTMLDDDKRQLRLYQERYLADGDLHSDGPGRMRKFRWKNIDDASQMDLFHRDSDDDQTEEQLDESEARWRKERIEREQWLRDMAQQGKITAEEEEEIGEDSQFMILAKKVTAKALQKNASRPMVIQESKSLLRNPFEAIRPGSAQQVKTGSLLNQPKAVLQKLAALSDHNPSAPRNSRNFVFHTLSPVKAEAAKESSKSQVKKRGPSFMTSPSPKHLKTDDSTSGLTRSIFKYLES

B1: Claspin N-terminal polypeptide #2 (1-350aa), dephosphorylated with λPPase (domain or fragment)
chain: MTGEVGSEVHLEINDPNVISQEEADSPSDSGQGSYETIGPLSEGDSDEEIFVSKKLKNRKVLQDSDSETEDTNASPEKTTYDSAEEENKENLYAGKNTKIKRIYKTVADSDESYMEKSLYQENLEAQVKPCLELSLQSGNSTDFTTDRKSSKKHIHDKEGTAGKAKVKSKRRLEKEERKMEKIRQLKKKETKNQEDDVEQPFNDSGCLLVDKDLFETGLEDENNSPLEDEESLESIRAAVKNKVKKHKKKEPSLESGVHSFEEGSELSKGTTRKERKAARLSKEALKQLHSETQRLIRESALNLPYHMPENKTIHDFFKRKPRPTCHGNAMALLKSSKYQSSHHKEIIDT
modifications: dephosphorylated with λPPase
binding result: binds

— doi:10.1101/2024.01.08.574761 (bioRxiv, 2024)
